Measurements as given in paper PMC4245977 (Biochemistry, 2014).

Target: the molecule itself
Assay: crystal structure

B1: AACC (C136A/C141A) double mutant of the Tn501 MerA (mercuric reductase) catalytic core (domain or fragment, Pseudomonas aeruginosa (Tn501))
chain: EPPVQVAVIGSGGAAMAAALKAVEQGAQVTLIERGTIGGTAVNVGAVPSKIMIRAAHIAHLRRESPFDGGIAATVPTIDRSKLLAQQQARVDELRHAKYEGILGGNPAITVVHGEARFKDDQSLTVRLNEGGERVVMFDRCLVATGASPAVPPIPGLKESPYWTSTEALASDTIPERLAVIGSSVVALELAQAFARLGSKVTVLARNTLFFREDPAIGEAVTAAFRAEGIEVLEHTQASQVAHMDGEFVLTTTHGELRADKLLVATGRTPNTRSLALDAAGVTVNAQGAIVIDQGMRTSNPNIYAAGDCTDQPQFVYVAAAAGTRAAINMTGGDAALDLTAMPAVVFTDPQVATVGYSEAEAHHDGIETDSRTLTLDNVPRALANFDTRGFIKLVIEEGSHRLIGVQAVAPEAGELIQTAALAIRNRMTVQELADQLFPYLTMVEGLKLAAQTFNKDVKQLSCCAG
  binding result: binds
